Experimental data from patent US20160199440A1 (UNIVERSITY OF ROCHESTER, published 2016).

T1: Claudin 1 (endogenous, in 16HBE human bronchial epithelial cells) (human, UniProt O95832 1-211)
T1 sequence (looked up): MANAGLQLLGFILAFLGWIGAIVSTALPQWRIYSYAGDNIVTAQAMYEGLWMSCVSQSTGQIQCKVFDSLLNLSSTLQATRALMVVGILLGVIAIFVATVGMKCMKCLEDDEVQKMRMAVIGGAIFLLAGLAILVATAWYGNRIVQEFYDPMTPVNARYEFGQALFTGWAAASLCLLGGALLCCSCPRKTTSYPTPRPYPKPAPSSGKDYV


Molecular target: T1, Claudin 1 (endogenous, in 16HBE human …)
Test: cell-based or functional assay

Binder | enhancement of penetration of labeled Synagis antibody (168 kD), 2.4 µM peptide [fold] | enhancement of penetration of labeled Synagis antibody (168 kD), 12 µM peptide [fold] | increase in FD-40 permeability, 2.4 µM peptide [fold] | increase in FD-40 permeability, 12 µM peptide [fold] | increase in fluorescein permeability, 2.4 µM peptide [fold] | increase in fluorescein permeability, 12 µM peptide [fold] | increase in FITC-dextran 40 kDa (FD-40) permeability, 2.4 µM peptide [fold] | increase in fluorescein (0.4 kDa) permeability, 2.4 µM peptide [fold]
H-SILTGVSTLDQSLKQLSNFSQAVSTQSSR-NH2 [Peptide 2a, scrambled peptide] | 4.9 | 5.6 | 25.3 | 30.5 | 5.6 | 16.4 | – | –
H-SSVSQSTGQIQSKVFDSLLNLSSTLQATR-NH2 [Peptide 1a, hCldn1 (53-81, C54,64S)] | 2.5 | 3.2 | – | 16.8 | – | 6.7 | 11.2 | 4.1
